The record followed here is patent publication US20030186325A1 (GlaxoSmithKline, published 2003).

Experiment [1] deals with T1, α4β1 integrin (UniProt P13612 34-1032; P05556 21-798).
T1 construct: whole, on cells; Endogenous integrin on the J6 and HL60 cell lines; adhesion run with 0.2 mM MnCl2 (and TPA for HL60); also called α4 integrin on J6 and HL60 cells
Kind of experiment: J6 cell adhesion to coated GST fusion, with and without BIO1211.

In experiment [2] the target is T2, α5β1 integrin (UniProt P08648 42-1049; P05556 21-798).
T2 construct: whole, on cells; Endogenous integrin on J6 cells
T2 sequence (P08648 42-1049, chain 1 of 2): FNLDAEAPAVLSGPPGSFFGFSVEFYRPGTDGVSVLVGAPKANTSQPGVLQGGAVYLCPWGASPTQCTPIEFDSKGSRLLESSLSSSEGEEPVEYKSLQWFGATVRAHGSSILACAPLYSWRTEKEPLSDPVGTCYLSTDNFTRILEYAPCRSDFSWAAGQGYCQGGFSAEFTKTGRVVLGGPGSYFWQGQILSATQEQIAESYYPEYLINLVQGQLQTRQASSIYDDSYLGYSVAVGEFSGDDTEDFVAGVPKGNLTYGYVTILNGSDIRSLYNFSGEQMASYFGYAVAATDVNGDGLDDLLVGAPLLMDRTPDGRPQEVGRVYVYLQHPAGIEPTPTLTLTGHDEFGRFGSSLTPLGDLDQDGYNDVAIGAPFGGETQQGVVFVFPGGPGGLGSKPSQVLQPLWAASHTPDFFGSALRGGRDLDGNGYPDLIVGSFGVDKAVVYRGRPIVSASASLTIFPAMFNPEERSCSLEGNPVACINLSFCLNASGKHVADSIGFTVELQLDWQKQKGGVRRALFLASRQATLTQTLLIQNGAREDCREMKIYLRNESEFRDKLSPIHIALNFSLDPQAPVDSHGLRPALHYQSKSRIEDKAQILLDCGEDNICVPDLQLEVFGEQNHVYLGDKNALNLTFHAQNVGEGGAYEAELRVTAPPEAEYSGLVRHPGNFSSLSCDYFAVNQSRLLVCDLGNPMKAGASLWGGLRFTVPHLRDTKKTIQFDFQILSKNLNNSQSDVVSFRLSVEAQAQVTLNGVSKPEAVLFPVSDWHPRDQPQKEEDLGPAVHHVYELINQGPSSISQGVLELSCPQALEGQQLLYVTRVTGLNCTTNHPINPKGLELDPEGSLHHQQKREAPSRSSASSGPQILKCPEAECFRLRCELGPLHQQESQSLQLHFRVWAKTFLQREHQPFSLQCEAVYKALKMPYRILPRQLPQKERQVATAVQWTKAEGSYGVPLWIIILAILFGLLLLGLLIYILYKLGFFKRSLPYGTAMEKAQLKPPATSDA
T2 sequence (P05556 21-798, chain 2 of 2): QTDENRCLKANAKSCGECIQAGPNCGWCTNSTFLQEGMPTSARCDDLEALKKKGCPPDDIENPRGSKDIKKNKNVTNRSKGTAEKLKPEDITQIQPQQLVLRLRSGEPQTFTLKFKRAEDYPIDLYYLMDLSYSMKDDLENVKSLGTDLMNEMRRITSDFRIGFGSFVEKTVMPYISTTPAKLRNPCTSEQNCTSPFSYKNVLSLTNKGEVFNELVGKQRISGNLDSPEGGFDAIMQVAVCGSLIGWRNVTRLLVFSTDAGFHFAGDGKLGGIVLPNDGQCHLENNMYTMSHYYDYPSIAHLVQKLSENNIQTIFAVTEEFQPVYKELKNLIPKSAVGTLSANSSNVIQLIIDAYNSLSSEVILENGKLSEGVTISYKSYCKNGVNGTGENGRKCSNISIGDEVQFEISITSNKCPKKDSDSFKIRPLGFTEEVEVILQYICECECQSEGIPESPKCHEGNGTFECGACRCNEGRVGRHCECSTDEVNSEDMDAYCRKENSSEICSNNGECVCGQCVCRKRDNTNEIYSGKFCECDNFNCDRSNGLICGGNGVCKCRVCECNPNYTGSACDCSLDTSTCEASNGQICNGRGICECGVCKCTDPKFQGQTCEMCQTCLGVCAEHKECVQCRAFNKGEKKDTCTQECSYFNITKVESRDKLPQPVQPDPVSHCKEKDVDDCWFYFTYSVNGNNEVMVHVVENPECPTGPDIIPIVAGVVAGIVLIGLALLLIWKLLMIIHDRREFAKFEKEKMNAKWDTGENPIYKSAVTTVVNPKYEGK
Kind of experiment: J6 cell adhesion to coated GST fusion that is left in the presence of BIO1211.

In experiment [3] the target is T2, α5β1 integrin. Put plainly: J6 cell adhesion to coated GST fusion in the presence of BIO1211.
For experiment [4], the target named is T1, α4β1 integrin. Put plainly: adhesion of J6 and HL60 cells to coated GST fusion with function blocking antibodies.
Protocol: Cells were incubated for 35 minutes at 37° C. in the presence of or absence of various function blocking anti-integrin antibodies at 10 μg/ml. To prebind the antibodies cells were preincubated on ice for 10 minutes before being moved to 37° C. Each data point represents the mean±SD of duplicate points. […] To stimulate α4β1 binding to OPN, 50 ng/ml TPA was also included. Cells were incubated for 35 minutes at 37° C. in the presence or absence of various function blocking anti-integrin antibodies at 10 μg/ml. To prebind the antibodies cells were preincubated on ice for 10 minutes before being moved to 37° C. Each data point represents the mean±SD of duplicate points.

T1 sequence (P13612 34-1032, chain 1 of 2): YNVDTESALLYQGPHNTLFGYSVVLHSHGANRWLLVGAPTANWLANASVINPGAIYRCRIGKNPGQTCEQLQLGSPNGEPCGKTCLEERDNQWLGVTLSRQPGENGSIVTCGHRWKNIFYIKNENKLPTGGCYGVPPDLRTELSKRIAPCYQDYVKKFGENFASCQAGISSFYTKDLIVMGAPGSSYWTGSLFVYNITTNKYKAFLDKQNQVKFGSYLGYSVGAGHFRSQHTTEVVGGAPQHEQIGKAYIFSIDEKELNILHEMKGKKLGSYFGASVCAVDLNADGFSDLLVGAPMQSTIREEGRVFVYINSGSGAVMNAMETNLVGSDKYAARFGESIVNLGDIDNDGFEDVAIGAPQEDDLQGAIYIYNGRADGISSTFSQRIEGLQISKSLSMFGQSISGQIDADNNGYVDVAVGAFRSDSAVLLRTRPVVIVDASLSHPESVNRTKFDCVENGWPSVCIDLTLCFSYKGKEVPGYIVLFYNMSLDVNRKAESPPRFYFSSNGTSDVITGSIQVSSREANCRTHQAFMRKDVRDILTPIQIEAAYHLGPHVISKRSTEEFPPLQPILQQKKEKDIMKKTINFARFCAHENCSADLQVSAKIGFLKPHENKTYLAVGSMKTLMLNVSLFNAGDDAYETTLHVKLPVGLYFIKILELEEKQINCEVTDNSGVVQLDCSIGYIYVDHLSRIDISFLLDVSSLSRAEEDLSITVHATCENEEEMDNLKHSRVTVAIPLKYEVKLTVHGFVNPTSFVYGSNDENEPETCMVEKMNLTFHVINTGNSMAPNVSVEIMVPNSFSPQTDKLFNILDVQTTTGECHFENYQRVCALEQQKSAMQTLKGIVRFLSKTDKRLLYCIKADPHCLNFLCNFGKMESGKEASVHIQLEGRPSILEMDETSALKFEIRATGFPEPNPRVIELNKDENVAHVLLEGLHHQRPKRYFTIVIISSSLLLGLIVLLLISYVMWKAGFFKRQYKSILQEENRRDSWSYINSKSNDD
T1 sequence (P05556 21-798, chain 2 of 2): as the sequence (P05556 21-798, chain 2 of 2) above

B1: GST fusion protein of thrombin cleaved OPN (aa17-168) (ligand)
chain: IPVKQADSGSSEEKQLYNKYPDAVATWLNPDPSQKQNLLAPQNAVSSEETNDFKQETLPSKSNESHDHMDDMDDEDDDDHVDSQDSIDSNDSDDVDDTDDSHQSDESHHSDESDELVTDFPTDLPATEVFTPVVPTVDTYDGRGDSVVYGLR
notes: Stop codon after aa168, so that Arg168 is the free C-terminus; also called thrombin cleaved fragment; not shown: GST carrier and the linker of the modified pGEX-2T vector
Regarding B1, the binding result in the experiment with α4β1 integrin [1] and in the experiment with α5β1 integrin [2] was “binds” in each case.

B2: GST fusion protein of OPN aa125-168 (ligand)
chain: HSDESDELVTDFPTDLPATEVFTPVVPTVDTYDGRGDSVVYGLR
notes: not shown: GST carrier and the linker of the modified pGEX-2T vector
Turning to B2, the binding result with α4β1 integrin [1] and in the experiment with α5β1 integrin [3] was “binds” in each case.

B3: GST fusion protein representing intact osteopontin (aa17-314) (ligand)
chain: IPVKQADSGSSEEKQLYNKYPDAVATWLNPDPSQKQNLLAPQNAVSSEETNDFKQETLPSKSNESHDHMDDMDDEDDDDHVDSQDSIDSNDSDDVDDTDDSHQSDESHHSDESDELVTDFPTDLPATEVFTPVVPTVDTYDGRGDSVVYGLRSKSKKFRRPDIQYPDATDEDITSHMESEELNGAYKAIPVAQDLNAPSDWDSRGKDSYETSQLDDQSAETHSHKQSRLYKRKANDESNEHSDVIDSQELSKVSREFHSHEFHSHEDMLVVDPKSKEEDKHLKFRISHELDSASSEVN
notes: Expressed in E. coli UT5600; coated on plates; also called intact OPN; full length OPN; not shown: GST carrier and the linker of the modified pGEX-2T vector
Take B3: in the experiment with α4β1 integrin [4], the binding result is listed as “binds”.
